Assay results taken from patent US20070244048A1 (published 2007).
Read-outs that look alike come from different tables or passages of the source. Non-standard residues stand in square brackets, D forms with d. No end group written: not given here. *: point of attachment. Succinimide(1-Et,3-yl) = CCN1C(=O)CC(*)C1=O

How the values were obtained:
[1] = biological target: T1, human NMUR1 (human), Q9HB89; assay: 125I-hNMU-25 displacement, HEK cell membranes; settings: remark: other sources report otherwise
T1 chain: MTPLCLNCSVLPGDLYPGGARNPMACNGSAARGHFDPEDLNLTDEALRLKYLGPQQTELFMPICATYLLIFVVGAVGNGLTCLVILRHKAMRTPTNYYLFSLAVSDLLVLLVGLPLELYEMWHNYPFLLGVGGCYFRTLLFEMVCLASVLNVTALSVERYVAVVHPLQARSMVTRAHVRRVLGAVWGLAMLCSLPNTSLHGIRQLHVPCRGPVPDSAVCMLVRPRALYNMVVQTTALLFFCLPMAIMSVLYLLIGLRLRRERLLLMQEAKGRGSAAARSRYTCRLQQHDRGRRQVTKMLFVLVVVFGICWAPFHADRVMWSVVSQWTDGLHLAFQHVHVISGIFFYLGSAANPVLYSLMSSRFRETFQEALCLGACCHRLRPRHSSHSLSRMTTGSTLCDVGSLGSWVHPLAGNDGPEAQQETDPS

human NMUR2 [2] = biological target: T2, human NMUR2 (human, UniProt Q9GZQ4 1-415); assay: 125I-hNMU-25 displacement, HEK cell membranes
T2 construct: whole, on cells; Stably expressed in cells (FLIPR); also called hNMUR2; human R2
Protocol: Confluent cell monolayers expressing NMU receptors (the HEK cells described above) were harvested with phosphate buffered saline, collected by centrifugation, and resuspended in membrane buffer (50 mM TrisCl pH 7.4, 5 mM MgCl₂, 1× Protease Inhibitor Cocktail, 10 μM phosphoramidon). After the cell pellet was homogenized, the solution was centrifuged at 18,000 rpm for 20 minutes at 4° C. The pellet was resuspended in membrane buffer to yield a final concentration of 0.5-5 μg/μL of membrane and stored at −80° C.
Experiments were performed in assay buffer (25 mM TrisCl, pH 7.4, 10 mM MgCl₂, 2mM EDTA, 1× Protease Inhibitor Cocktail, 100 μg/mL Bacitricin, 10 μM phosphoramidon) in 200 μL volumes in a 96-well format using 2-5 μg of membrane and […] ¹²⁵I-hNMU-25 (about 12,000 cpm/well). For non-specific binding, 1 μM hNMU-25 was added. About 5 μL of peptides were added to measure antagonist activity, and the entire reaction was incubated at room temperature with shaking for 80 minutes. The reaction was terminated by rapid filtration through 0.3% poly-ethylenimine presoaked Millipore 96-well filter plates and washed with ice-cold buffer (5 mM TrisCl pH 7.4, 10 mM MgCl₂, 2.5 mM EDTA, 0.04% Triton X-100). Plates were air-dried overnight at room temperature and recovered radioactivity was determined by standard scintillation counting. IC₅₀ values were determined using GraphPad Prism software.
Concentration-response curves and radioligand-binding data were fitted using Prism (GraphPad Software). Results are summarized below in Tables 8 and 9.

human NMUR2 [3] = biological target: T2, human NMUR2; assay: cell-based or functional assay
human NMUR1 [4] = biological target: T3, human NMUR1 (human, UniProt Q9HB89 1-426); assay: cell-based or functional assay
T3 sequence (looked up): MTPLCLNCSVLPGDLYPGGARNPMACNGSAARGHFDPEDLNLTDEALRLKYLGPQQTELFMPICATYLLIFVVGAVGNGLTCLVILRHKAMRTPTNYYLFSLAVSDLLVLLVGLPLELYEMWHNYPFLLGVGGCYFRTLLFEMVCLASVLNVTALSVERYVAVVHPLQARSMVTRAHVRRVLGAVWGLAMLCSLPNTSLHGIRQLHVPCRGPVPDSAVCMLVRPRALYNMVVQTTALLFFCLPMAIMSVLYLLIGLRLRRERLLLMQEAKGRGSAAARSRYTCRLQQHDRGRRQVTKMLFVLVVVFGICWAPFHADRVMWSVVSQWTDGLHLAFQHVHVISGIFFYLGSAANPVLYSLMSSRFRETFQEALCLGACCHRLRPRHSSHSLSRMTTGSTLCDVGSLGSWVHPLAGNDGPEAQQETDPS

human NMUR2 [5] = biological target: T2, human NMUR2; assay: cell-based or functional assay; remark: listed apart in the source
human NMUR1 [6] = biological target: T3, human NMUR1; assay: cell-based or functional assay; remark: listed apart in the source
rat NMUR2 [7] = biological target: T4, rat NMUR2 (rat, UniProt Q9ESQ4 1-395); assay: cell-based or functional assay
rat NMUR1-TTG [8] = biological target: T5, rat NMUR1-TTG (rat, UniProt Q9JJI5 1-425); assay: cell-based or functional assay
T5 sequence (looked up): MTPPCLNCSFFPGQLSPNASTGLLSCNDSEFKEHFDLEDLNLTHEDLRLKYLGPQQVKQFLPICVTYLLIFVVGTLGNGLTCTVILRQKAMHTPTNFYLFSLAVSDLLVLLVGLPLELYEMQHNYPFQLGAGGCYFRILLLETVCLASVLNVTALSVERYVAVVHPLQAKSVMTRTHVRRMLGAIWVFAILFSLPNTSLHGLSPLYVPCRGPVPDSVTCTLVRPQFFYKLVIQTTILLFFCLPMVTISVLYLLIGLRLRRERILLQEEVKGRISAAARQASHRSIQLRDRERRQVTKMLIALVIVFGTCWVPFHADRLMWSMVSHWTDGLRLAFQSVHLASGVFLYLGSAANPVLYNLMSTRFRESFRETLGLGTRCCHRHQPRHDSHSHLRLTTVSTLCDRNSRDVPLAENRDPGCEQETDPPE

rat NMUR1-ATG [9] = biological target: T6, rat NMUR1-ATG (rat, UniProt Q9JJI5 1-425); assay: cell-based or functional assay
T6 sequence (looked up): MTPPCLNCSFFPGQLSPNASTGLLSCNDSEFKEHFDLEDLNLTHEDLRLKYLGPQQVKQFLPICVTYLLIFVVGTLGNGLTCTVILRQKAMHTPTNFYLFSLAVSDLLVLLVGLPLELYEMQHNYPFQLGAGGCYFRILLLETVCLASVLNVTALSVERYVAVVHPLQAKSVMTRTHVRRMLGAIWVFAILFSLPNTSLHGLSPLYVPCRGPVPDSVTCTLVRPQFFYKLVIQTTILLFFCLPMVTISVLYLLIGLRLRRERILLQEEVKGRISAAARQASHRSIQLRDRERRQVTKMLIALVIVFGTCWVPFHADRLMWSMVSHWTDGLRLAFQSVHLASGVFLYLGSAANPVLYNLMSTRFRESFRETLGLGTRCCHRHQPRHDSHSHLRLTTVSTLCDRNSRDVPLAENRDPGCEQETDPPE

rat NMUR2 [10] = biological target: T4, rat NMUR2; assay: cell-based or functional assay; remark: listed apart in the source
rat NMUR1-TTG [11] = biological target: T5, rat NMUR1-TTG; assay: cell-based or functional assay; remark: listed apart in the source
mouse NMUR2 [12] = biological target: T7, mouse NMUR2 (mouse, UniProt Q8BZ39 1-395); assay: cell-based or functional assay
rat NMUR1-ATG [13] = biological target: T6, rat NMUR1-ATG; assay: cell-based or functional assay; remark: listed apart in the source
mouse NMUR1-CTG [14] = biological target: T8, mouse NMUR1-CTG (mouse, UniProt O55040 1-428); assay: cell-based or functional assay
T8 sequence (looked up): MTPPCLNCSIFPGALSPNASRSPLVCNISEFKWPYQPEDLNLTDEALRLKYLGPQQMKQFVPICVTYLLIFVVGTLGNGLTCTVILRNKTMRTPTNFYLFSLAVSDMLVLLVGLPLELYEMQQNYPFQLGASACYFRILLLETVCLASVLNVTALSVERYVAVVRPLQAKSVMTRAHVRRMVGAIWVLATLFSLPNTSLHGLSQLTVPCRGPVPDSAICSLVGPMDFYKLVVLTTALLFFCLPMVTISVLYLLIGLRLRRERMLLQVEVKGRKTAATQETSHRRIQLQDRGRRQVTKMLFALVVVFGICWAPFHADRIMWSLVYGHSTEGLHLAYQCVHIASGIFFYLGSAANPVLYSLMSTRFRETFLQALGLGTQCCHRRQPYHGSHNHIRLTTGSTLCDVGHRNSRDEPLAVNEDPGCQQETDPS

human NMUR2 [15] = biological target: T2, human NMUR2; assay: cell-based or functional assay; remark: listed apart in the source
human NMUR1 [16] = biological target: T3, human NMUR1; assay: cell-based or functional assay; remark: listed apart in the source
mouse NMUR1-ATG [17] = biological target: T9, mouse NMUR1-ATG (mouse, UniProt O55040 1-428); assay: cell-based or functional assay
T9 sequence (looked up): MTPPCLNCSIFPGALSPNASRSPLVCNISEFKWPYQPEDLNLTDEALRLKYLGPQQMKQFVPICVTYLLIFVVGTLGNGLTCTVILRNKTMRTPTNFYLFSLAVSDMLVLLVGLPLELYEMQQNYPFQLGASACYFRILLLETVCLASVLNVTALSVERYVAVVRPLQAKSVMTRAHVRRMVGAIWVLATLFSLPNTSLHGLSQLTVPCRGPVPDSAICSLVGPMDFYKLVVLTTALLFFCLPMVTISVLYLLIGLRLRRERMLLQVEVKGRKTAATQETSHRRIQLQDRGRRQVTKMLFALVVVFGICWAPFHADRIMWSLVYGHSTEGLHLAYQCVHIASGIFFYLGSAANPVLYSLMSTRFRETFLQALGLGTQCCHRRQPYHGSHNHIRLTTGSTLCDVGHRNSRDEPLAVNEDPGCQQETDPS

rat NMUR2 [18] = biological target: T4, rat NMUR2; assay: 125I-hNMU-25 displacement, cell membranes
rat NMUR1-TTG [19] = biological target: T5, rat NMUR1-TTG; assay: 125I-hNMU-25 displacement, cell membranes
mouse NMUR2 [20] = biological target: T7, mouse NMUR2; assay: 125I-hNMU-25 displacement, cell membranes
rat NMUR1-ATG [21] = biological target: T6, rat NMUR1-ATG; assay: 125I-hNMU-25 displacement, cell membranes
mouse NMUR1-CTG [22] = biological target: T8, mouse NMUR1-CTG; assay: 125I-hNMU-25 displacement, cell membranes
human NMUR2 [23] = biological target: T2, human NMUR2; assay: 125I-hNMU-25 displacement, cell membranes
human NMUR1 [24] = biological target: T3, human NMUR1; assay: 125I-hNMU-25 displacement, cell membranes
mouse NMUR1-ATG [25] = biological target: T9, mouse NMUR1-ATG; assay: 125I-hNMU-25 displacement, cell membranes
mouse NMUR2 [26] = biological target: T7, mouse NMUR2; assay: cell-based or functional assay; remark: listed apart in the source
mouse NMUR1-CTG [27] = biological target: T8, mouse NMUR1-CTG; assay: cell-based or functional assay; remark: listed apart in the source
mouse NMUR1-ATG [28] = biological target: T9, mouse NMUR1-ATG; assay: cell-based or functional assay; remark: listed apart in the source

T7 sequence (Q8BZ39 whole entry): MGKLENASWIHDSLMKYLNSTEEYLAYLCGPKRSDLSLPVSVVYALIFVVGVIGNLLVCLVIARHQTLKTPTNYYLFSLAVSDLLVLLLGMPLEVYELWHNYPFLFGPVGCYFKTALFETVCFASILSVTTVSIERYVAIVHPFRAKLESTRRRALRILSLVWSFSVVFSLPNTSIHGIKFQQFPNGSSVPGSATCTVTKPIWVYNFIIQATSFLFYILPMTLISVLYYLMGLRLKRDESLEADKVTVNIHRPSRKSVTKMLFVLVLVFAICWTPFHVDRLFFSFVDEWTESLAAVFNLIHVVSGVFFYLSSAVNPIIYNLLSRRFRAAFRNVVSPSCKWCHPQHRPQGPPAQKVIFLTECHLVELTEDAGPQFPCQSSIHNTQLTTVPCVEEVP
T4 sequence (Q9ESQ4 whole entry): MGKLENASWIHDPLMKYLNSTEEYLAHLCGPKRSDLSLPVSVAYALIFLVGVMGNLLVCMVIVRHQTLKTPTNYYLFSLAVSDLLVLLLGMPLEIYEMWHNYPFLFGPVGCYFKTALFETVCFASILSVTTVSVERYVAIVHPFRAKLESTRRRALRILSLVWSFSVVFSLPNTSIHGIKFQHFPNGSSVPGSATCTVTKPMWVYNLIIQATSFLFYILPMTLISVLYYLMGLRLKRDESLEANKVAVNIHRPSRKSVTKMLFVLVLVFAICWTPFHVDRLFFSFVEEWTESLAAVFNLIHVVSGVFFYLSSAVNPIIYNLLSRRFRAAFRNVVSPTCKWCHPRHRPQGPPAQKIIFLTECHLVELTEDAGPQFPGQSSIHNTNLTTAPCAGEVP
T2 sequence (Q9GZQ4 whole entry): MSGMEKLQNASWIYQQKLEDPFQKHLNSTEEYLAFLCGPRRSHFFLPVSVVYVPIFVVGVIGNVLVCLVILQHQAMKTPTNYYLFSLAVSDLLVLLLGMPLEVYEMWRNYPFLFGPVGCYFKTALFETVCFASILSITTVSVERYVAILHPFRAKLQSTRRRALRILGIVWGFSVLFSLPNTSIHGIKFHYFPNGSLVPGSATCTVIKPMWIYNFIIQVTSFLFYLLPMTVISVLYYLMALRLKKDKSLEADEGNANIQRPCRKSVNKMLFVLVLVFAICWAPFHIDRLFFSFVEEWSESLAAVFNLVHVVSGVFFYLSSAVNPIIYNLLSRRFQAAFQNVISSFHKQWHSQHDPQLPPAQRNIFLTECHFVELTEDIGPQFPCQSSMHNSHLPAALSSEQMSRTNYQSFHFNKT

B1: neuromedin U receptor agonist L (peptide)
peptide: FWLFRARN-NH2
[1]
  % activity (binding): 0%
Human NMUR2 [2]
  % activity (binding): 100%
  IC50: 37 nM
Human NMUR2 [3]
  % activity: 100%
  EC50: 6.2 nM
Human NMUR1 [4]
  % activity: 74%
  EC50: > 1000 nM

B2: NMU13 (peptide)
peptide: Ac-C(Succinimide(1-Et,3-yl))FRVDEEFQSPFASQSRGYF[dA]WRPRN-NH2
SMILES: CCN1C(=O)CC(SC[C@H](NC(C)=O)C(=O)N[C@@H](Cc2ccccc2)C(=O)N[C@@H](CCCNC(=N)N)C(=O)N[C@H](C(=O)N[C@@H](CC(=O)O)C(=O)N[C@@H](CCC(=O)O)C(=O)N[C@@H](CCC(=O)O)C(=O)N[C@@H](Cc2ccccc2)C(=O)N[C@@H](CCC(N)=O)C(=O)N[C@@H](CO)C(=O)N2CCC[C@H]2C(=O)N[C@@H](Cc2ccccc2)C(=O)N[C@@H](C)C(=O)N[C@@H](CO)C(=O)N[C@@H](CCC(N)=O)C(=O)N[C@@H](CO)C(=O)N[C@@H](CCCNC(=N)N)C(=O)NCC(=O)N[C@@H](Cc2ccc(O)cc2)C(=O)N[C@@H](Cc2ccccc2)C(=O)N[C@H](C)C(=O)N[C@@H](Cc2c[nH]c3ccccc23)C(=O)N[C@@H](CCCNC(=N)N)C(=O)N2CCC[C@H]2C(=O)N[C@@H](CCCNC(=N)N)C(=O)N[C@@H](CC(N)=O)C(N)=O)C(C)C)C1=O
notes: also called NMUR1 selective peptide NMU13
Human NMUR2 [5]
  % Activity (FLIPR): 0%
  EC50 (FLIPR): > 1000 nM
Human NMUR1 [6]
  % Activity (FLIPR): 100%
  EC50 (FLIPR): 4.8 nM
Rat NMUR2 [7]
  % Activity (FLIPR): 0%
  EC50 (FLIPR): > 1000 nM
Rat NMUR1-TTG [8]
  % Activity (FLIPR): 94.6%
  EC50 (FLIPR): 115 nM
Rat NMUR1-ATG [9]
  % Activity (FLIPR): 100%
  EC50 (FLIPR): 9.5 nM
Rat NMUR2 [10]
  % activity: 24%
  IC50 (nM), functional: > 1000 nM
Rat NMUR1-TTG [11]
  % activity: 94%
  IC50 (nM), functional: 107 nM
Mouse NMUR2 [12]
  % activity: 27%
  IC50 (nM), functional: > 1000 nM
Rat NMUR1-ATG [13]
  % activity: 92%
  IC50 (nM), functional: 15.8 nM
Mouse NMUR1-CTG [14]
  % activity: 88%
  IC50 (nM), functional: 14 nM
Human NMUR2 [15]
  % activity: 0%
  IC50 (nM), functional: > 1000 nM
Human NMUR1 [16]
  % activity: 91%
  IC50 (nM), functional: 1.7 nM
Mouse NMUR1-ATG [17]
  % activity: 96%
  IC50 (nM), functional: 7.8 nM
Rat NMUR2 [18]
  % inhibition of NMU-25 binding: 0%
Rat NMUR1-TTG [19]
  % inhibition of NMU-25 binding: 100%
  IC50: 3.24 nM
Mouse NMUR2 [20]
  % inhibition of NMU-25 binding: 30%
Rat NMUR1-ATG [21]
  % inhibition of NMU-25 binding: 100%
  IC50: 1.6 nM
Mouse NMUR1-CTG [22]
  % inhibition of NMU-25 binding: 100%
  IC50: 3.5 nM
Human NMUR2 [23]
  % inhibition of NMU-25 binding: 48%
Human NMUR1 [24]
  % inhibition of NMU-25 binding: 100%
  IC50: 4.3 nM
Mouse NMUR1-ATG [25]
  % inhibition of NMU-25 binding: 100%
  IC50: 5.4 nM
Mouse NMUR2 [26]
  % Activity (FLIPR): 0%
  EC50 (FLIPR): > 1000 nM
Mouse NMUR1-CTG [27]
  % Activity (FLIPR): 73.6%
  EC50 (FLIPR): 142 nM
Mouse NMUR1-ATG [28]
  % Activity (FLIPR): 98.6%
  EC50 (FLIPR): 35.8 nM
